This note sets out measurements from US8242083B2, “Kinase substrates” (PerkinElmer Health Sciences, Inc., priority 2008, dated 2012).

Type in all cases: biochemical
Experiment [1] concerns the target HCK (Homo sapiens, UniProt P08631). Put plainly: TR-FRET kinase assay, HCK. The conditions noted are these: Kinase Concentration 0.25 nM; 50 nM ULight-labeled substrate, 200 micromolar ATP, 2 hours. As to the method:
(§1) TR-FRET kinase assays are performed under standardized conditions: various individual kinases are incubated with 50 nM of kinase substrate BRB1 labeled with the TR-FRET acceptor dye ULight (PerkinElmer) and 200 micromolar ATP in 10 μL of kinase assay buffer (50 mM HEPES pH7.5, 10 mM MgCl2, 3 mM MnCl2, 1 mM EGTA, 2 mM DTT and 0.01% Tween-20) for 2 hours at room temperature. Reactions are stopped with EDTA, and anti-phospho-tyrosine antibodies (clone PT66) labeled with the TR-FRET europium chelate donor dye are added to a final concentration of 2 nM in a final volume of 20 μL. The TR-FRET signal emitted at 665 nm is read one hour after the addition of antibodies using a TR-FRET plate reader such as the Envision® Multilabel Plate reader (PerkinElmer). The emitted signal at 665 nm is proportional to the extent of peptide phosphorylation, Control reactions indicative of background are performed excluding ATP from the reaction.
(§2) Assay conditions are identical to those used described for FIG. 1.
For orientation: TR-FRET usually uses a lanthanide donor and a delayed reading to cut background.

The target in experiment [2] is T1, DDR2 (Homo sapiens, UniProt Q16832).
T1 sequence (Q16832 22-855): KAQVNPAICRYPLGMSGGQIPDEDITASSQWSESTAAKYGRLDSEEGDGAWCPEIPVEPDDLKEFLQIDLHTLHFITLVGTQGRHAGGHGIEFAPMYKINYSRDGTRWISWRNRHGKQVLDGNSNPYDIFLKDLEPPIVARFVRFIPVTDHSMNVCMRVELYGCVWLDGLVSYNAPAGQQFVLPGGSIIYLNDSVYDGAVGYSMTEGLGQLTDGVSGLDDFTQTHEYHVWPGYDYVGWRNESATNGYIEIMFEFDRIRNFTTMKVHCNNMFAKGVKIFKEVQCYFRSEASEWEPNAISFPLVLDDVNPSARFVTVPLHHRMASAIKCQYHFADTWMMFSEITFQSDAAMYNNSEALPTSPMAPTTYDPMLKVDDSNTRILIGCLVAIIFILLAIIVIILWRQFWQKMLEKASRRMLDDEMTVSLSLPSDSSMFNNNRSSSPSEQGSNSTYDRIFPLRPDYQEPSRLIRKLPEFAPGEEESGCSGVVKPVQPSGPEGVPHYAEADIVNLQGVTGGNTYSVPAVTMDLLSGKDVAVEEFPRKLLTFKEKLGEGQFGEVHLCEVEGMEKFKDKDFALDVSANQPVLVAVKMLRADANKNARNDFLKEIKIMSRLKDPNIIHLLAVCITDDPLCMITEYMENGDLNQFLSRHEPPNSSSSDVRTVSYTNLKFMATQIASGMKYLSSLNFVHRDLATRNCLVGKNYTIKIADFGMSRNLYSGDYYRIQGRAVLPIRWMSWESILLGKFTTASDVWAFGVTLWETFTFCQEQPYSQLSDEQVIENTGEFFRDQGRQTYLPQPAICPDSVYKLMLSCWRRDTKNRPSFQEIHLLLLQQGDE
The experiment in a line: TR-FRET kinase assay, DDR2. The conditions noted are these: Kinase Concentration 0.5 nM; 50 nM ULight-labeled substrate, 200 micromolar ATP, 2 hours. The procedure: as §1, §2

The target in experiment [3] is LTK (Homo sapiens, UniProt P29376). Put plainly: TR-FRET kinase assay, LTK. The conditions noted are these: Kinase Concentration 1 nM; 50 nM ULight-labeled substrate, 200 micromolar ATP, 2 hours. As to the method:
as §1, §2

In experiment [4] the target is TRKB (NTRK2) (Homo sapiens, UniProt Q16620). The experiment in a line: TR-FRET kinase assay, TRKB (NTRK2). The following applies: Kinase Concentration 0.5 nM; 50 nM ULight-labeled substrate, 200 micromolar ATP, 2 hours. As to the method:
as §1, §2

Experiment [5] addresses JAK1 (Homo sapiens, UniProt P23458). The experiment in a line: TR-FRET kinase assay, JAK1. The following applies: Kinase Concentration 7 nM; 50 nM ULight-labeled substrate, 200 micromolar ATP, 2 hours. As to the method: as §1, §2
In experiment [6] the target is T2, CTK (Homo sapiens, UniProt P42679).
T2 sequence (P42679 1-507): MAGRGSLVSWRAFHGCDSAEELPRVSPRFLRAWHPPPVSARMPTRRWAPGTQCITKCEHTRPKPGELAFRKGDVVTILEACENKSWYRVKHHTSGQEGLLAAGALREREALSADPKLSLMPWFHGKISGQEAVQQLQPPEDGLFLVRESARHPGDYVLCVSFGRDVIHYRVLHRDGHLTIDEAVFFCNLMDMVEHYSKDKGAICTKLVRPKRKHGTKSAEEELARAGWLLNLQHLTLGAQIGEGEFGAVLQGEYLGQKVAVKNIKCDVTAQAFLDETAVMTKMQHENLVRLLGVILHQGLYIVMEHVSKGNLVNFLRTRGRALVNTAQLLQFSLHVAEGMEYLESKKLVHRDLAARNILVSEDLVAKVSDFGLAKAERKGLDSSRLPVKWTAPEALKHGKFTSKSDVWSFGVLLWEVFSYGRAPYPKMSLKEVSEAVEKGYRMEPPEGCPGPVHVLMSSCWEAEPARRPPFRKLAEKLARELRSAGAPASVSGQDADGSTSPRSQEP
The experiment in a line: TR-FRET kinase assay, CTK. The conditions noted are these: Kinase Concentration 20 nM; 50 nM ULight-labeled substrate, 200 micromolar ATP, 2 hours. The procedure: as §1, §2

JAK1, sequence (P23458 whole entry, species assumed): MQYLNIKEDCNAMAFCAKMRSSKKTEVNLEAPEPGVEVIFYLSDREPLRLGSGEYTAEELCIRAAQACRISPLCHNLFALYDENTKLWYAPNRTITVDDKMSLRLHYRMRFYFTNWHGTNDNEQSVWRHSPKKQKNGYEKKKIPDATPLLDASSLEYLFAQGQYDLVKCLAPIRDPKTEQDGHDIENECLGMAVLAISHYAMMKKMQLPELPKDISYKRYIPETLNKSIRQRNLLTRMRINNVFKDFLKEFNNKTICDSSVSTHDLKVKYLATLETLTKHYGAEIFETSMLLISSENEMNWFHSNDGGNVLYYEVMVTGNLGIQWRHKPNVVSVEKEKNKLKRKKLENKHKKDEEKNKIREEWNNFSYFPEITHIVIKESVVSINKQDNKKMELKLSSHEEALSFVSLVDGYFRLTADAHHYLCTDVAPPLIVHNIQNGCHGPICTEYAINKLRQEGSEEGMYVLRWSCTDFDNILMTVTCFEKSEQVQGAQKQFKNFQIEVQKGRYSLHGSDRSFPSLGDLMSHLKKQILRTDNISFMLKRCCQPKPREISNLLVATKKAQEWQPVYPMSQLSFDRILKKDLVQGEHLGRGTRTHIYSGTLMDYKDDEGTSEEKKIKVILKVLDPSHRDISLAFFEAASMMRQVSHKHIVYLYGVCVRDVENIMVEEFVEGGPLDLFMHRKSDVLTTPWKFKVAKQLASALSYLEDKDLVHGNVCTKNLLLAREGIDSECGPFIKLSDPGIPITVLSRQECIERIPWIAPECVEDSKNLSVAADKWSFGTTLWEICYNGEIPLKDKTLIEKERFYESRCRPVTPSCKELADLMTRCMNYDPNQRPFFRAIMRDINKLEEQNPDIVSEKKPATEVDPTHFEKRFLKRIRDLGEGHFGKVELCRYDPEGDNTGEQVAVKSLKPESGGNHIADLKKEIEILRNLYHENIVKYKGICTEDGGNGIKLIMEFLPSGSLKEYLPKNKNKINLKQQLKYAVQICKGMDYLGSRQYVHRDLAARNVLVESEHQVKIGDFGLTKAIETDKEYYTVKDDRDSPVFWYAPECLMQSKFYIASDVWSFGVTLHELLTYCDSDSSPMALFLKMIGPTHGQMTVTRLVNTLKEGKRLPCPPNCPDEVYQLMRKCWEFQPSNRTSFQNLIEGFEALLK
HCK, sequence (P08631 whole entry, species assumed): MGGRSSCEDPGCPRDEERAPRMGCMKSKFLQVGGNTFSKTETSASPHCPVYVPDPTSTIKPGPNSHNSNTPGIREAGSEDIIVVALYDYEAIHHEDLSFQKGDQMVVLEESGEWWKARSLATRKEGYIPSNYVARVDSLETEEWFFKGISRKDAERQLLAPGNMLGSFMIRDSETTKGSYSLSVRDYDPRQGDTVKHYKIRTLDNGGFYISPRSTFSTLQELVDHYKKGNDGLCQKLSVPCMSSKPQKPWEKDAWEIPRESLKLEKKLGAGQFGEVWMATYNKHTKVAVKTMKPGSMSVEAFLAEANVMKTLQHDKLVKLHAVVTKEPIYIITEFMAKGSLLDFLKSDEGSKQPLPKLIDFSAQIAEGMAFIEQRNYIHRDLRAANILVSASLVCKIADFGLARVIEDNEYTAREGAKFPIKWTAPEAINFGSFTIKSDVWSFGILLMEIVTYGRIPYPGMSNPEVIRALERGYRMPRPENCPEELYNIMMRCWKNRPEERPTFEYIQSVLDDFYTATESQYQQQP
LTK, sequence (P29376 17-864, species assumed): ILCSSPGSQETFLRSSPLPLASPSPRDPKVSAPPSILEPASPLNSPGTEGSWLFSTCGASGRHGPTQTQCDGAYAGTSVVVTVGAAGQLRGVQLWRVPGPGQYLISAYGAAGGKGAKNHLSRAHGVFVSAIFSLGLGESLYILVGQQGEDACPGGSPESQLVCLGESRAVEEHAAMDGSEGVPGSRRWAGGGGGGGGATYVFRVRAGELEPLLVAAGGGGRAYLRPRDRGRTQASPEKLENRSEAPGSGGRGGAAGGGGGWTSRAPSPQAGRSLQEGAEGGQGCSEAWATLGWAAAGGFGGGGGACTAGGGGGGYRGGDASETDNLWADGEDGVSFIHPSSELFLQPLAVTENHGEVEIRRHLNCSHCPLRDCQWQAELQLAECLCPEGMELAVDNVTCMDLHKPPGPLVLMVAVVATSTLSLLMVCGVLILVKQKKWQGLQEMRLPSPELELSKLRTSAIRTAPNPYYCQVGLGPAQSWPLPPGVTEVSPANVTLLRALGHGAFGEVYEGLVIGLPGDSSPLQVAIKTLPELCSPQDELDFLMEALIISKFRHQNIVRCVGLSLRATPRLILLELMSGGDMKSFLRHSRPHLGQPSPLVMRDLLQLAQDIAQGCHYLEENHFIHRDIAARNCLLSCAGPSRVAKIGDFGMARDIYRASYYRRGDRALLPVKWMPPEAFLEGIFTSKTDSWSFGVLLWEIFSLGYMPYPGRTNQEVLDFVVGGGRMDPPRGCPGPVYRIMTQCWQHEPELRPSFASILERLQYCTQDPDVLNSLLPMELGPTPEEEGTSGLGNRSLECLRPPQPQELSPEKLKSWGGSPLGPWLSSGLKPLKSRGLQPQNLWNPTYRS

In the case of “C AYE AYE AYE K EYA EYA EYA K AYA EYE R (CAYEAYEAYEKEYAEYAEYAKAYAEYER; tyrosine kinase substrate peptide) [BRB1]”, the “Signal to Noise ratio with BRB1 Peptide” value is 29.7 in experiment [1]; 1.0 in experiment [2]; 13.7 in experiment [3]; 28.0 in experiment [4]; 13.7 in experiment [5]; 2.5 in experiment [6].
